Experimental data published in the supplement of paper PMC10567573.

B1: SEC22B (parent)
chain: FPKKLAFAYLEDLHSEFDEQHGKK
B2: FBXO3 (parent)
chain: FIDTYSDVGRYIDHYAAIKKAWDD

Variants of: B1
Test: protein stability index of a GFP-peptide fusion (GPS, HEK-293T) (PSI 1-6); higher = more stable
Conditions: c terminus: a fixed tail appended
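Also: lentivirally expressed fusions sorted by FACS into six bins by GFP to DsRed ratio, PSI derived from sequencing read proportions per bin multiplied by bin number.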

Going from K24Q to G22P, the protein stability index falls from 2.9 to 2.48.

Going from L10N to H14K, the protein stability index falls from 3.33 to 2.96.

Going from E16A to K24W, the protein stability index rises from 2.4 to 2.54.

Going from F1R to Q20E, the protein stability index falls from 3.98 to 2.52.

Compared with K24G, L13Q is higher in protein stability index: 2.11 for the first, 3.21 for the second.

First: F1D
Second: F7C
The protein stability index of the first is higher: 4.93 for the first, 3.47 for the second.

Compared with S15M, D12G is higher in protein stability index: 2.5 for the first, 2.77 for the second.

Compared with K23G, S15N is higher in protein stability index: 2.27 for the first, 2.67 for the second.

First: G22C
Second: F7Q
The protein stability index of the first is lower: 2.35 for the first, 4.16 for the second.

Going from Q20F to F1A, the protein stability index rises from 2.49 to 4.36.

Compared with Q20L, A8V is lower in protein stability index: 2.54 for the first, 2.31 for the second.

Going from Q20R to K24F, the protein stability index falls from 2.67 to 2.21.

Going from A6L to H21E, the protein stability index rises from 1.83 to 2.85.

Going from K3N to A8I, the protein stability index rises from 2.23 to 2.4.

Compared with Y9G, D18K is lower in protein stability index: 3.27 for the first, 1.76 for the second.

First: L10I
Second: D18Y
The protein stability index of the first is higher: 2.34 for the first, 1.5 for the second.

Going from Y9N to G22M, the protein stability index falls from 3.67 to 2.62.

Going from D18I to P2D, the protein stability index rises from 1.92 to 4.59.

Going from L10G to A8H, the protein stability index falls from 2.78 to 2.72.

First: K23Y
Second: E11T
The protein stability index of the first is lower: 2.2 for the first, 2.64 for the second.

First: L5V
Second: E19C
The protein stability index of the first is higher: 2.9 for the first, 2.15 for the second.

First: L5W
Second: E16Q
The protein stability index of the first is lower: 1.59 for the first, 2.55 for the second.

In the case of K4H, the protein stability index is reported as 2.87.

Variants of: B2
Test: as above
Conditions: c terminus: a fixed tail appended

First: F1A
Second: F1C
The protein stability index of the first is higher: 3.39 for the first, 2.87 for the second.

Compared with F1D, F1E is lower in protein stability index: 3.74 for the first, 3.21 for the second.

Compared with F1G, F1H is higher in protein stability index: 3.05 for the first, 3.58 for the second.

First: F1I
Second: F1K
The protein stability index of the first is higher: 2.56 for the first, 2.47 for the second.

First: F1L
Second: F1M
The protein stability index of the first is higher: 3.22 for the first, 2.79 for the second.

Compared with F1N, F1P is higher in protein stability index: 3.57 for the first, 3.62 for the second.

First: F1Q
Second: F1R
The protein stability index of the first is higher: 3.41 for the first, 3.09 for the second.

Compared with F1S, F1T is higher in protein stability index: 3.64 for the first, 3.74 for the second.

First: F1V
Second: F1W
The protein stability index of the first is higher: 3.28 for the first, 2.58 for the second.

Going from F1Y to I2A, the protein stability index rises from 2.09 to 2.45.

First: I2C
Second: I2D
The protein stability index of the first is lower: 2.4 for the first, 3.65 for the second.

Going from I2E to I2F, the protein stability index falls from 3.59 to 2.63.

Compared with I2G, I2H is lower in protein stability index: 3.01 for the first, 2.47 for the second.

Going from I2K to I2L, the protein stability index falls from 3.03 to 2.39.

First: I2M
Second: I2N
The protein stability index of the first is lower: 2.41 for the first, 3.21 for the second.

Compared with I2P, I2Q is lower in protein stability index: 3 for the first, 2.52 for the second.

Compared with I2R, I2S is higher in protein stability index: 3.03 for the first, 3.14 for the second.

Compared with I2T, I2V is lower in protein stability index: 2.32 for the first, 2.1 for the second.

Compared with I2W, I2Y is higher in protein stability index: 2.45 for the first, 2.5 for the second.

Going from D3A to D3C, the protein stability index falls from 2 to 1.57.

Compared with D3E, D3F is lower in protein stability index: 2.14 for the first, 1.38 for the second.

Compared with D3G, D3H is lower in protein stability index: 3.01 for the first, 1.81 for the second.

Going from D3I to D3K, the protein stability index falls from 2.33 to 1.91.

First: D3L
Second: D3M
The protein stability index of the first is lower: 2.3 for the first, 2.56 for the second.

Compared with D3N, D3P is higher in protein stability index: 1.74 for the first, 2.01 for the second.

Going from D3Q to D3R, the protein stability index rises from 1.82 to 1.91.

Compared with D3S, D3T is lower in protein stability index: 2.06 for the first, 1.62 for the second.

Compared with D3V, D3W is lower in protein stability index: 2.63 for the first, 1.92 for the second.

First: D3Y
Second: T4A
The protein stability index of the first is higher: 2.46 for the first, 2.41 for the second.

First: T4C
Second: T4D
The protein stability index of the first is lower: 1.55 for the first, 2.04 for the second.

Compared with T4E, T4F is lower in protein stability index: 2.67 for the first, 2.28 for the second.

First: T4G
Second: T4H
The protein stability index of the first is higher: 3.57 for the first, 1.88 for the second.

First: T4I
Second: T4K
The protein stability index of the first is higher: 1.94 for the first, 1.83 for the second.

T4L and T4M are the same in protein stability index: 1.89 for the first, 1.89 for the second.

Compared with T4N, T4P is lower in protein stability index: 2.02 for the first, 1.86 for the second.

Compared with T4Q, T4R is higher in protein stability index: 1.59 for the first, 2.12 for the second.

Compared with T4S, T4V is higher in protein stability index: 1.89 for the first, 1.91 for the second.

Going from T4W to T4Y, the protein stability index rises from 1.37 to 1.82.

First: Y5A
Second: Y5C
The protein stability index of the first is lower: 2.25 for the first, 2.84 for the second.

Compared with Y5D, Y5E is lower in protein stability index: 2.9 for the first, 2.8 for the second.

First: Y5F
Second: Y5G
The protein stability index of the first is lower: 2.19 for the first, 2.21 for the second.

First: Y5H
Second: Y5I
The protein stability index of the first is higher: 2.13 for the first, 2.05 for the second.

Going from Y5K to Y5L, the protein stability index falls from 2.44 to 1.96.

First: Y5M
Second: Y5N
The protein stability index of the first is lower: 2.1 for the first, 2.21 for the second.

Going from Y5P to Y5Q, the protein stability index falls from 3.12 to 2.2.

Going from Y5R to Y5S, the protein stability index rises from 2.45 to 2.5.

First: Y5T
Second: Y5V
The protein stability index of the first is lower: 2.23 for the first, 2.47 for the second.

First: Y5W
Second: S6A
The protein stability index of the first is higher: 2.27 for the first, 1.97 for the second.

Compared with S6C, S6D is lower in protein stability index: 2.12 for the first, 1.69 for the second.

Compared with S6E, S6F is lower in protein stability index: 1.62 for the first, 1.6 for the second.

Compared with S6G, S6H is higher in protein stability index: 1.94 for the first, 2.06 for the second.

First: S6I
Second: S6K
The protein stability index of the first is higher: 2.14 for the first, 1.65 for the second.

First: S6L
Second: S6M
The protein stability index of the first is higher: 2.17 for the first, 1.77 for the second.

Compared with S6N, S6P is higher in protein stability index: 1.83 for the first, 2.03 for the second.

Compared with S6Q, S6R is higher in protein stability index: 1.89 for the first, 3.1 for the second.

Compared with S6T, S6V is higher in protein stability index: 1.65 for the first, 2.35 for the second.

First: S6W
Second: S6Y
The protein stability index of the first is higher: 3.09 for the first, 1.54 for the second.

Compared with D7A, D7C is higher in protein stability index: 1.21 for the first, 1.86 for the second.

Compared with D7E, D7F is higher in protein stability index: 1.48 for the first, 2.79 for the second.

Compared with D7G, D7H is lower in protein stability index: 2.33 for the first, 1.63 for the second.

Going from D7I to D7K, the protein stability index rises from 1.75 to 2.19.
